Experiment [1] has as its target T1, p185^HER2 ECD (secreted form of the extracellular domain of p185^HER2) (human, UniProt P04626 23-652).
T1 construct: extracellular domain; also called HER2 extracellular domain
Nature of the experiment: solution equilibrium with p185HER2 ECD, free antibody by ELISA on immobilized ECD (Friguet method).

In experiment [2] the target is p185^HER2 on cells (SK-BR-3 human breast tumor cells; WI-38 cells) (human, UniProt P04626 23-1255). The experiment in a line: cell-based or functional assay.
The target in experiment [3] is T1, p185^HER2 ECD (secreted form of the …). The experiment in a line: ratio of Kd values, solution equilibrium/ELISA.

This is an account of results in patent publication US6800738.

B1: huMAb4D5-2 (antibody, name in Kabat numbering, V domains shown)
VH: EVQLVESGGGLVQPGGSLRLSCAASGFNIKDTYIHWVRQAPGKGLEWVARIYPTNGYTRYADSVKGRFTISADDSKNTLYLQMNSLRAEDTAVYYCARWGGDGFYAMDVWGQGTLVTVSS
VL: not shown
One may read the Kd as the equilibrium constant for the complex coming apart. The molecule B1 gave a Kd in experiment [1] of 4.7 nM. Also, in experiment [2], the “Relative cell proliferation of SK-BR-3 cells, 96 hr, 8 ug/ml antibody” value is 101 % of untreated control. Moreover, the “fold increase in affinity over huMAb4D5-1” value in experiment [3] was 5 fold.
